Assay results as given in article PMC6557989.

Tests used:
[1] = biological target: Protein H (Streptococcus pyogenes (strain AP1)); assay: MST; Monolith NT.115; Alexa-488-labelled Protein H constant at 0.5 nM, C4BP at 16 concentrations; 50 mM Tris-HCl pH 7.4, 150 mM NaCl, 10 mM MgCl2, 0.05% Tween-20; 37°C
Target sequence in this assay (P50470 42-345 limits assumed): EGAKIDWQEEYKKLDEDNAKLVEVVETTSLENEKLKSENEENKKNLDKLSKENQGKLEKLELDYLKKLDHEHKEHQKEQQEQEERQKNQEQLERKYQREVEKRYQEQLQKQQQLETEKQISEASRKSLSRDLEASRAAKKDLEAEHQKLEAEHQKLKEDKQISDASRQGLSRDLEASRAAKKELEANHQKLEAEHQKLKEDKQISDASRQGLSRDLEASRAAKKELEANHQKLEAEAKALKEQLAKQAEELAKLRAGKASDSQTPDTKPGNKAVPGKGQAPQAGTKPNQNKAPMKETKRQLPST

[2] = biological target: C4b-binding protein (C4BP), human, purified from plasma (human) (UniProt P04003); assay: SEC; Superose 6 10/30, PBS, ambient temperature; 0.25 nmol C4BP with varying amounts of Protein H, pre-incubated 30 min at room temperature; area of the free Protein H peak fitted
Chain of C4b-binding protein (C4BP), human, purified from plasma (human) (P04003 49-597, chain 1 of 2): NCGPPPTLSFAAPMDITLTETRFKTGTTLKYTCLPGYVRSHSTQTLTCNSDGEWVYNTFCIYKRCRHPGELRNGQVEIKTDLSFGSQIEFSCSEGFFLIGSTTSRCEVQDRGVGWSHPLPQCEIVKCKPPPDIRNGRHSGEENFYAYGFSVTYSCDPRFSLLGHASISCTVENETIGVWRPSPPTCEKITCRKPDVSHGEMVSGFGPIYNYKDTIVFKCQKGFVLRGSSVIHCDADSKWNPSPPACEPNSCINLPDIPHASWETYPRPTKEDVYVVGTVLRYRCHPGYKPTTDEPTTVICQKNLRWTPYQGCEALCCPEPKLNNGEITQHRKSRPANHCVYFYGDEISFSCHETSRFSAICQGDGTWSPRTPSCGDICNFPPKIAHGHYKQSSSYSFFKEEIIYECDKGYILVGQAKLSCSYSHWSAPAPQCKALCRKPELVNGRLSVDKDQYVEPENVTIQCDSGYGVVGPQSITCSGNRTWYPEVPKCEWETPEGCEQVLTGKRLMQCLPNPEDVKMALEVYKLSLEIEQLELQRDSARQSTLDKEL
Chain of C4b-binding protein (C4BP), human, purified from plasma (human) (P20851 18-252, chain 2 of 2, further chain): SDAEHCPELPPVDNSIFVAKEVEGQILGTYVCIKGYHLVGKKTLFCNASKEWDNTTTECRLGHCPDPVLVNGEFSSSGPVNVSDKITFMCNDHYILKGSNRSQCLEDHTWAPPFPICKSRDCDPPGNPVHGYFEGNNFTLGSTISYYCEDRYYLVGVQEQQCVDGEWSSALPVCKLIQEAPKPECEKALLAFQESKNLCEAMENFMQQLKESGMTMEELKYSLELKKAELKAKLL

[3] = biological target: Protein H (Streptococcus pyogenes (strain AP1)); assay: SEC; Superose 6 10/30; 5 nmol Protein H alone at 8°C and 28°C; column calibrated with high molecular weight markers; monomer to dimer
[4] = biological target: Protein H on the surface of Streptococcus pyogenes AP1 (Streptococcus pyogenes (endogenous in strain AP1))

Chain of C4b-binding protein (C4BP), human, purified from plasma (P04003 49-597): as the sequence (P04003 49-597, chain 1 of 2) above
Chain of C4b-binding protein (C4BP), human, purified from plasma (P20851 18-252): as the sequence (P20851 18-252, chain 2 of 2, further chain) above

C4b-binding protein (C4BP), human, purified from plasma (from UniProt P04003 49-597; P20851 18-252) (complex)
Kd [1]: 180 nM

Protein H (natural protein)
stoichiometry N (Protein H monomers per C4BP) [2]: 26 | stoichiometry N [3]: 2

Protein H on the surface of Streptococcus pyogenes AP1 (natural protein)
aggregation of S. pyogenes AP1 grown overnight at 35°C, 37°C or 41°C (OD600 before against after vortexing); at 41°C all bacteria remained dispersed [4]: 70%
